From publication PMC7311918

Columns and labels:
Test in all cases: SEC-MALS
[1] = molecular target: HCoV-229E S 2P trimer (S ectodomain, residues 17-1113) (HCoV-229E) (UniProt P15423)
[2] = molecular target: HCoV-NL63 S 2P trimer (S ectodomain, residues 16-1291) (HCoV-NL63) (UniProt Q6Q1S2)
[3] = molecular target: HCoV-OC43 S 2P trimer (S ectodomain, residues 15-1263) (HCoV-OC43)

HCoV-229E S 2P trimer (S ectodomain, residues 17-1113) (from UniProt P15423 17-1113) (natural protein)
stoichiometry N [1]: 3

HCoV-NL63 S 2P trimer (S ectodomain, residues 16-1291) (from UniProt Q6Q1S2 16-1291) (natural protein)
stoichiometry N [2]: 3

HCoV-OC43 S 2P trimer (S ectodomain, residues 15-1263) (natural protein)
stoichiometry N [3]: 3
